Consider 3 molecules from article PMC8041783, “A positive charge region of Salmonella FliI is required for ATPase formation and efficient flagellar protein export” (Communications Biology, 2021).

Numbering of substitutions follows the chain as printed. Numbers in names are those of the source.

Data set [1] concerns the molecule itself. The data set is described as follows: negative-stain electron microscopy; purified FliI 1 μM in 50 mM Tris-HCl pH 8.0, 113 mM NaCl, 0.8 mM EDTA, 1 mM DTT with 5 mM MgCl2, 5 mM ADP, 5 mM AlCl3, 15 mM NaF, 20 min at room temperature; uranyl acetate stain; reference-free 2D class averages (RELION); monomers to hexameric ring.
For data set [2], the target named is T1, GST-FliJ (Salmonella enterica, UniProt P0A1K1 1-147).
T1 construct: FliJ of Salmonella enterica; source: S. enterica SJW1368, purified (Glutathione Sepharose 4B)
T1 sequence (P0A1K1 whole entry): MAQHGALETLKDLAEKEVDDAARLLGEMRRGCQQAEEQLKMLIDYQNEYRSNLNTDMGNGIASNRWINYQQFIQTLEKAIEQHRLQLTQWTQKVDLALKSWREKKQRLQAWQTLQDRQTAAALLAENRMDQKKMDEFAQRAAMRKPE
The data set is described as follows: pull-down; GST affinity chromatography: purified His-FliI or His-FliI-5A mixed with purified GST or GST fusions, dialysed overnight against PBS at 4 °C; Glutathione Sepharose 4B; wash 10 ml PBS; elution with 10 mM reduced glutathione; CBB and anti-FliI immunoblot. As to conditions: both partners purified.

B1: His-FliI(R26A/R27A/R33A/R76A/R93A) (enzyme)
chain: MTTRLTRWLTALDNFEAKMALLPAVAAYGRLTAATGLVLEATGLQLPLGATCIIERQDGPETKEVESEVVGFNGQALFLMPLEEVEGILPGAAVYARNGHGDGLQSGKQLPLGPALLGRVLDGGGKPLDGLPAPDTLETGALITPPFNPLQRTPIEHVLDTGVRAINALLTVGRGQRMGLFAGSGVGKSVLLGMMARYTRADVIVVGLIGERGREVKDFIENILGPDGRARSVVIAAPADVSPLLRMQGAAYATRIAEDFRDRGQHVLLIMDSLTRYAMAQREIALAIGEPPATKGYPPSVFAKLPALVERAGNGIHGGGSITAFYTVLTEGDDQQDPIADSARAILDGHIVLSRRLAEAGHYPAIDIEASISRAMTALITEQHYARVRLFKQLLSSFQRNRDLVSVGAYAKGSDPMLDKAITLWPQLEAFLQQGIFERADWEDSLQALDLIFPTV
notes: FliI of Salmonella enterica, UniProt P26465, with R26A/R27A/R33A/R76A/R93A; also called FliI-5A; His-FliI-5A; source: S. enterica SJW1368, pTrc99A-based plasmid co-expressing FliH; in lysate (Ni pull-down) and purified (Ni-NTA, then SEC to remove FliH)
One may read the stoichiometry N as the number of molecules, sites or subunits per partner or assembly. In the case of B1, the “stoichiometry N” value in data set [1] is 6. For the same molecule, the binding result in data set [2] is reported as “binds”.

B2: His-FliI(R26A/R27A/R33A/R76A) (enzyme)
chain: B1 chain with A93R
notes: FliI of Salmonella enterica, UniProt P26465, with R26A/R27A/R33A/R76A; also called FliI-4A; His-FliI-4A; source: S. enterica SJW1368, pTrc99A-based plasmid co-expressing FliH; in lysate (Ni pull-down) and purified (Ni-NTA, then SEC to remove FliH)
As to B2, the “stoichiometry N” value in data set [1] came out at 6.

B3: His-FliI(R26A/R27A/R33A) (enzyme)
chain: B1 chain with A76R, A93R
notes: FliI of Salmonella enterica, UniProt P26465, with R26A/R27A/R33A; also called FliI-3A; His-FliI-3A; source: E. coli BL21 (DE3) Star, pET19b-based plasmid, purified (Ni-NTA, Superdex 200 SEC)
As to B3, the “stoichiometry N” value in data set [1] is around 6.
